{"source": "paper PMC8514949", "molecular_target": "PI-3-kinase (human (endogenous in Caco2)) (UniProt P42338)", "sequence (P42338 whole entry)": "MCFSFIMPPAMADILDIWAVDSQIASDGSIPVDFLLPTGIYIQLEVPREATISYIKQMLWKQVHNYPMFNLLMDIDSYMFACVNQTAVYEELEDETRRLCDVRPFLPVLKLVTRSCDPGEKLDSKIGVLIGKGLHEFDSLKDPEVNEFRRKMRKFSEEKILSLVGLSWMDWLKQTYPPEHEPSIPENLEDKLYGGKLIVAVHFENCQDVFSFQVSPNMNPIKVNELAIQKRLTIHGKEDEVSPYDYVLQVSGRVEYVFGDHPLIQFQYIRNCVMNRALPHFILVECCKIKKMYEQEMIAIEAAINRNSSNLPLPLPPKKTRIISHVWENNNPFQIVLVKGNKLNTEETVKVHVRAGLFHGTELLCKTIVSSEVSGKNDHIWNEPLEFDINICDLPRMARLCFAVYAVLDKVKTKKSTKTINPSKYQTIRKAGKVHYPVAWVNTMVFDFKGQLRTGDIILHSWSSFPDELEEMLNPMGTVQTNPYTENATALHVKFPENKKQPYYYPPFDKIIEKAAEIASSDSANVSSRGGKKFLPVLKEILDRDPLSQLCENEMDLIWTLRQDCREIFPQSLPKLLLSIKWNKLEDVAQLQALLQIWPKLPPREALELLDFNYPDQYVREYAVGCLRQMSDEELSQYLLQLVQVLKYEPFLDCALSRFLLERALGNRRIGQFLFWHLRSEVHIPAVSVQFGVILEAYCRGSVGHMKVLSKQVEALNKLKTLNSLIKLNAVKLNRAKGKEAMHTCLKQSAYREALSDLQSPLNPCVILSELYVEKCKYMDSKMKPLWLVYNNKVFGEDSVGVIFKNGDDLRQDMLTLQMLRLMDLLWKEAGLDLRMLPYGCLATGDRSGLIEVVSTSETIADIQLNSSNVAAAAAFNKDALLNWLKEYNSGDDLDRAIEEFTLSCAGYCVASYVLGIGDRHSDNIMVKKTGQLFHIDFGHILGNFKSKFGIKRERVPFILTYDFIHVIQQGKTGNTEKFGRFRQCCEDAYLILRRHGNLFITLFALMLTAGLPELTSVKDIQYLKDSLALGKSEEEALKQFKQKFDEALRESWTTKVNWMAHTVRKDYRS", "test": "co-IP; as the basal co-IP, but Caco2 Dsg2^WT cells incubated for 24h with TNFα (100 ng/ml) before lysis; Dsg2/PI-3-kinase ratio of optical densities, fold of controls, n=4"}
{"substance": "Desmoglein 2 (from UniProt Q14126 50-1118) (natural protein)", "values": [{"measurement": "fold of controls (Dsg2/PI-3-kinase ratio in the co-IP, after TNFα) (fold of controls)", "value": 0.34}]}
